Source: article doi:10.1101/2024.09.22.614354 (bioRxiv, 2024)

Assays:
Assay in all cases: fluorescence polarisation
Rb^P M695I = target: T1, Rb^P M695I (human, UniProt P06400 380-788, M695I)
T1 sequence: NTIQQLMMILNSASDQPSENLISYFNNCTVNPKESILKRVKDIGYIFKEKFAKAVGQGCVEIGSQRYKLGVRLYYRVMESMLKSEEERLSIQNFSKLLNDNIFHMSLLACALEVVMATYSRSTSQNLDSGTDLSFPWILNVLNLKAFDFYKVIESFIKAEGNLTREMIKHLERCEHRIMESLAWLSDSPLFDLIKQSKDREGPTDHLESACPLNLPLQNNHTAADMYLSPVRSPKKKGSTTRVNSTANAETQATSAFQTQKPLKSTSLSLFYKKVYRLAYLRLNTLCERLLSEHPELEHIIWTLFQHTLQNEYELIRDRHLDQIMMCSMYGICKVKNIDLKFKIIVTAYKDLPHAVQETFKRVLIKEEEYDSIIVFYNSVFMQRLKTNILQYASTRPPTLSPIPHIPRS

Rb^P I703V = target: T2, Rb^P I703V (human, UniProt P06400 380-788, I703V)
T2 sequence: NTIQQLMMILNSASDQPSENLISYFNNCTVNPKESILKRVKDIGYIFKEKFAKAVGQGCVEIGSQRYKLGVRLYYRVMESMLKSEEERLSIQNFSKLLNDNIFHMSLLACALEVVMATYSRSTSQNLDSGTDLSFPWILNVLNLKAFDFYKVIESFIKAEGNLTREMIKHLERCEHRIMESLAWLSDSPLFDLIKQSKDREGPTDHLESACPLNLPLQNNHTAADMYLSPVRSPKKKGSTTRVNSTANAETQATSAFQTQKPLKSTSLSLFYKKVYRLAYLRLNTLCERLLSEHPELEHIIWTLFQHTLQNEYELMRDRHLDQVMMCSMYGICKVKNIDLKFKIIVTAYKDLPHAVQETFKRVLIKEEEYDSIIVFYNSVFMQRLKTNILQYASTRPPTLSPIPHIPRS

Rb^P A525G = target: T3, Rb^P A525G (human, UniProt P06400 380-788, A525G)
T3 sequence: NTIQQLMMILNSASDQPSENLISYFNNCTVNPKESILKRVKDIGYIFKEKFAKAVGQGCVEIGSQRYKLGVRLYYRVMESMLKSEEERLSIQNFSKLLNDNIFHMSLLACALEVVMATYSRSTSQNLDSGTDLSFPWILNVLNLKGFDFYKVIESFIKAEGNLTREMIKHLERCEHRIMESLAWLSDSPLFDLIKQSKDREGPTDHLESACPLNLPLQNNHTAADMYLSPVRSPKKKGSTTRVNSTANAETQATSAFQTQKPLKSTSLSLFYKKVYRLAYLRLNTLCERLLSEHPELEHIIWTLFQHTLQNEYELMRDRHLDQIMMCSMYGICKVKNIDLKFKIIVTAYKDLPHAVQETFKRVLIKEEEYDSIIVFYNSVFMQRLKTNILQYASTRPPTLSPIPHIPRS

Rb^P R741C = target: T4, Rb^P R741C (human, UniProt P06400 380-788, R741C)
T4 sequence: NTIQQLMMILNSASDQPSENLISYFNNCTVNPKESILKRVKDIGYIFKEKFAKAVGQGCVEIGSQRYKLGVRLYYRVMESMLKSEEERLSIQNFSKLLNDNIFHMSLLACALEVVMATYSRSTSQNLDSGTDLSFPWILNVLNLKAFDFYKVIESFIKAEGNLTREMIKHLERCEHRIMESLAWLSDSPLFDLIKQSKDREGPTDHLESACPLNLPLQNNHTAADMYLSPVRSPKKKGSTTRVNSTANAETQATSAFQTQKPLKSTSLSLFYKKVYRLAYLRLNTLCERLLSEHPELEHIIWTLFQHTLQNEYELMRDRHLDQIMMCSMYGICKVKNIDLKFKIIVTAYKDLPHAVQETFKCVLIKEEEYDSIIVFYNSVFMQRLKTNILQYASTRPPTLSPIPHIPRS

Rb^P R656Q = target: T5, Rb^P R656Q (human, UniProt P06400 380-788, R656Q)
T5 sequence: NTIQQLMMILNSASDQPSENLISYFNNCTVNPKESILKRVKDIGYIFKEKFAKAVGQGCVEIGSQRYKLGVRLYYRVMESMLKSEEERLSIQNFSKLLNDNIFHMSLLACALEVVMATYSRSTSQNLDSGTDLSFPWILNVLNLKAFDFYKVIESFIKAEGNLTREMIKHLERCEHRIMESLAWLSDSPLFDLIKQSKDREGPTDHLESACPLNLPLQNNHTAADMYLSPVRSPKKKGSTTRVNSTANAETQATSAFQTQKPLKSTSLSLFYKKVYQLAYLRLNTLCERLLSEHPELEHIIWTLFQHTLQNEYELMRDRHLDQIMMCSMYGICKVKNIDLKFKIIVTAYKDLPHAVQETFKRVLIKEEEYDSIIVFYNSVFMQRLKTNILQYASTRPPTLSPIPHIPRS

Measured: binding result

B1: TMR-E7^LxCxE (LxCxE peptide of the E7 oncoprotein from HPV, TMR-labeled) (peptide)
peptide: DLYCYEQLN
modifications: not fully specified; TMR fluorescent label (TMR-E7^LxCxE)
binds: all assays above
